Publication PMC5868747
Read-outs that look alike come from different tables or passages of the source.

B1: 59pF (minimal RRE) (dsDNA)
DNA 1: CGATTTGTGAAGGTTAACCTGTCCATG
DNA 2: CATGGACAGGTTAACCTTCACAAATCG
B2: 59pA (dsDNA)
DNA 1: ACACCACGTGTGTGACTGACGATTTGTGAAGGTTAACCTGTCCATGTCGC
DNA 2: GCGACATGGACAGGTTAACCTTCACAAATCGTCAGTCACACACGTGGTGT

Columns and labels:
Myc-RTA (IVT) [1] = molecular target: T1, Myc-RTA (IVT) (Kaposi's sarcoma-associated herpesvirus …, UniProt F5HCV3 1-691); assay: EMSA
Myc-RTA (IVT) [2] = molecular target: T1, Myc-RTA (IVT); assay: EMSA; remark: listed apart in the source

T1 sequence (F5HCV3 whole entry): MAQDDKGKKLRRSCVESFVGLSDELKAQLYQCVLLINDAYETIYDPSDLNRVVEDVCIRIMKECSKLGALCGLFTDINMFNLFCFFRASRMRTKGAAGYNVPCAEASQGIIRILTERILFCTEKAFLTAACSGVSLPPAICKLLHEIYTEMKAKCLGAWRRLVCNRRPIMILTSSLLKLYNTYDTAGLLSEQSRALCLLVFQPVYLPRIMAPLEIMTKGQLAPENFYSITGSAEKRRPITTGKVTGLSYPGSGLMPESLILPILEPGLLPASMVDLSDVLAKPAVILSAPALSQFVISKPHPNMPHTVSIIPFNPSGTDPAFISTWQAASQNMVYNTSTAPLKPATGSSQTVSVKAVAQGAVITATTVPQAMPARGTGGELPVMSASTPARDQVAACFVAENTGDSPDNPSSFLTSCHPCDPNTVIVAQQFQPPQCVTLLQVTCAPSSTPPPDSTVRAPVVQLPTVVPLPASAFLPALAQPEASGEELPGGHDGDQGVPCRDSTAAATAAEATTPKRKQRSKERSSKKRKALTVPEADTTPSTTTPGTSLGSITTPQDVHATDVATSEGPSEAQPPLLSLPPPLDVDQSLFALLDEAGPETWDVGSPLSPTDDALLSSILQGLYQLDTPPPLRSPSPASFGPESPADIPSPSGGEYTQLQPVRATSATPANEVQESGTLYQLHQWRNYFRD

Binder | binding result (Myc-RTA (IVT) [1]) | binding result (Myc-RTA (IVT) [2])
B1 | binds | –
B2 | – | binds
